Holding throughout (conditions): both partners purified
Experiment [1] deals with T1, USP8 rhodanese domain (174-317), GST tag cleaved (human, UniProt P40818 174-317).
T1 construct: Ubiquitin carboxyl-terminal hydrolase 8 (USP8), human, rhodanese domain, residues 174-317; also called Rhod domain; source: E. coli BL21-Gold (DE3), purified (glutathione sepharose, GST cleaved on beads with HRV 3C protease)
T1 sequence (looked up): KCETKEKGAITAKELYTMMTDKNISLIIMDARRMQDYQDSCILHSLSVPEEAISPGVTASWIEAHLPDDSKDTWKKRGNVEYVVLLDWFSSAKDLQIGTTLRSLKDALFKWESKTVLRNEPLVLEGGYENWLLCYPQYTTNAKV
Description: fluorescence polarisation; competitive: 1.5 µM protein preincubated with 10 nM FITC-labeled peptide, displaced by increasing concentration of unlabeled peptide; 50 mM sodium phosphate pH 7.4, 1 mM DTT. Background: In fluorescence polarisation assays a small probe gives low polarisation when free and higher when bound to something large.

Experiment [2] addresses T2, GST-tagged USP8 MIT domain (1-142) (human, UniProt P40818 1-142).
T2 construct: Ubiquitin carboxyl-terminal hydrolase 8 (USP8), human, MIT domain, residues 1-142; pETM33 vector, synthesized by GenScript; source: E. coli BL21-Gold (DE3), purified (glutathione sepharose, eluted with reduced glutathione)
T2 sequence (looked up): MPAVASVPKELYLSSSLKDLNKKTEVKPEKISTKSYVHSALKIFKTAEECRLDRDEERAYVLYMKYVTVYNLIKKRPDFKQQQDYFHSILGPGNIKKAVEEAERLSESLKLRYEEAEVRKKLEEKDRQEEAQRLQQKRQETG
Description: peptide or protein array; SPOT array, cellulose-bound peptides; GST-tagged MIT domain 100 µM in 5% skim milk in TBST overnight at 4 °C; detected with HRP-conjugated anti-GST antibody.

The target of another experiment is T3, USP8 Rhod (174–317) (human, UniProt P40818 174-317).
T3 construct: Ubiquitin carboxyl-terminal hydrolase 8 (USP8), human, UniProt P40818, rhodanese domain, residues 174-317; Construct in the pETM33 vector, synthesized by GenScript; also called USP8_Rhodanese; USP8 rhodanese domain; source: E. coli BL21-Gold (DE3), purified (GSH sepharose)
T3 sequence (looked up): T1 sequence (looked up)
Put plainly: fluorescence polarisation; direct binding: constant concentration of FITC-labeled peptide, increasing concentration of the protein; 50 mM sodium phosphate buffer pH 7.4, 1 mM DTT; KD from a fit to a quadratic equation.

Experiment [3] has as its target T4, GST-tagged USP8 rhodanese domain (174-317) (human, UniProt P40818 174-317).
T4 construct: Ubiquitin carboxyl-terminal hydrolase 8 (USP8), human, rhodanese domain, residues 174-317; pETM33 vector, synthesized by GenScript; also called Rhod domain; source: E. coli BL21-Gold (DE3), purified (glutathione sepharose, eluted with reduced glutathione)
T4 sequence (looked up): T1 sequence (looked up)
Description: peptide or protein array; SPOT array, cellulose-bound peptides; GST-tagged Rhodanese domain 150 µM in 5% skim milk in TBST overnight at 4 °C; detected with HRP-conjugated anti-GST antibody.

We go through eight molecules from article PMC12057046, “Elucidation of short linear motif-based interactions of the MIT and rhodanese domains of the ubiquitin-specific protease 8” (Biology Direct, 2025).

Ends that are not written are not given here. * marks the point of attachment. FITC = O=C1OC2(c3ccc(O)cc3Oc3cc(O)ccc32)c2ccc(NC(=S)*)cc21

B1: KIAA1614 568-583 peptide, synthetic (peptide)
peptide: GMERVLGGLSSPLRLL
notes: also called positive control; source: JPT Peptide Technologies; free, unlabelled for fluorescence polarisation (GeneCust, >95% purity)
For orientation: Kd means the constant that tells how readily two partners part at equilibrium. Regarding B1, binding in experiment [1] was characterised by a dissociation constant (Kd) of 10 ± 2 µM.

B2: Cadherin-1 863-877 peptide, cellulose-bound (SPOT array) (peptide, UniProt P12830 863-877, looked up)
peptide: NEWGNRFKKLADMYG
notes: cadherin-1 (CDH1), residues 863-877; holds an RFxxL motif; also called CDH1_(863 − 877); source: alanine scan: INTAVIS
Take B2: the binding result in experiment [2] is reported as “binds”.

B3: DBP 116-131 peptide, cellulose-bound (SPOT array) (peptide)
peptide: YVDLDAFLLEHGLPPS
notes: also called positive control; source: array of predicted peptides: JPT Peptide Technologies
Consider B3, for which, in experiment [2], the binding result is given as “binds”.

B4: TET3 1705-1720 peptide, unlabelled, synthetic (peptide)
peptide: GLALWEAKMKQLAERA
notes: source: synthetic peptide (GeneCust, >95% purity)
B4 yielded a Kd in experiment [1] of 33 ± 9 µM.

B5: FITC-TET3 1705-1720 peptide (Methylcytosine dioxygenase TET3) (peptide)
peptide: {FITC}-GLALWEAKMKQLAERA
notes: also called probe peptide; source: synthetic peptide, bought: GeneCust (France), > 95% purity
In the case of B5, binding with USP8 Rhod (174–317) was put at a Kd of 0.7 µM.

B6: Tumour protein 63 608-622 peptide, cellulose-bound (SPOT array) (peptide, UniProt Q9H3D4 608-622, looked up)
peptide: HEFSSPSHLLRTPSS
notes: holds an SSPxxL[LM] motif; source: alanine scan: INTAVIS
For the molecule B6, the binding result in experiment [3] is on record as “binds”.

B7: Keratin-85 41-55 peptide, cellulose-bound (SPOT array) (peptide, UniProt P78386 41-55, looked up)
peptide: GVSCYRGLTGFGSRS
notes: Keratin-85 (KRT85), residues 41-55; holds an Rx[LI]xG motif; also called KRT85_(41 − 55); source: bought: JPT Peptide Technologies, cellulose membrane
As to B7, in experiment [3], the binding result is “binds”.

B8: DNAJB6 118-130 peptide, cellulose-bound (SPOT array) (peptide, UniProt O75190 118-130, looked up)
peptide: PFEDFFGNRRGPR
notes: DnaJ homolog subfamily B member 6 (DNAJB6), residues 118-130; holds a partial DFx{2,3}R motif; also called DnaJ homolog subfamily B member 6; source: alanine scan: INTAVIS
As to B8, the binding result in experiment [2] was “binds”.
